# Article PMC5643395
# Experiments:
# Assay in all cases: ensemble FRET (microplate), salt-induced disassembly
# Settings in all cases: Reconstitution by dialysis from 2 M to 5 mM NaCl in 10 mM Tris-HCl, 0.1 mM EDTA; FRET over NaCl titration (FRET buffer and temperature not in the material) …
# histone octamer H2A R81A = test system: histone octamer H2A R81A
# [1] = test system: histone octamer H2A R81E/R88E
# histone octamer H2A R88A = test system: histone octamer H2A R88A
# histone octamer H2A R88E = test system: histone octamer H2A R88E
# [2] = test system: histone octamer H2A R81A/R88A
# histone octamer H2A R81E = test system: histone octamer H2A R81E
substance,measurement,setting,value
Widom 601 170 bp,K half,histone octamer H2A R81A,632 mM NaCl
same,K half,[1],452 mM NaCl
same,K half,histone octamer H2A R88A,668 mM NaCl
same,K half,histone octamer H2A R88E,455 mM NaCl
same,K half,[2],568 mM NaCl
same,K half,histone octamer H2A R81E,468 mM NaCl
